Usually Kd stands for the concentration at which binding is half-saturated. Usually koff stands for the first-order rate constant of dissociation. What is called kon is the second-order rate constant of association.

Changes are numbered by the printed parent chain.

The record followed here is US20070065439A1.

B1: 4.20.1 (antibody, human IgG4, V domains shown)
VH: QVQLVESGGGVVQPGRSLRLSCAASGFTFSNYGMNWVRQAPGKGLEWVAVIWYDGNNKSEADSVKGRFTISRDNSKNTLYLQMNSLRAEDTAVYYCARDSRSGPFDYWGQGTLVTVSS
VL: EIVLTQSPDFQSVTPKEKVTITCRASQSIGSSLHWYQQKPDQSPKLLIKFASQSFSGVPSRISGSGSGTDFTLTINSLEAEDAATYYCHQSSSLPFTFGPGTKVDIK
B2: 9.19.1 (antibody, human IgG4, V domains shown)
VH: QVQLVESGGGVVQPGRSLRLSCAASGFTFNNYGMHWVRQAPGKGLECVAVIWYDGGNKYYADSVKGRFAISRDNSKNTLYLQMNSLRAEDTAVYYCTAVTKLNYYYGMDVWGQRTTVTVS
VL: QSALTQPASVSGSPGQSITISCTGTSSDVGGYNYVSWYQQHPGKAPKFMIYEVSNRPSGVSNRFSGSKSGNTASLTISGLQAEDEADYYCSSYTSSSILVFGGGTKLTVL
B3: 9.26.1 (antibody, human IgG4, V domains shown)
VH: B2 VH with R114G
VL: B2 VL with F48L
B4: 5.5.1 (antibody, IgG4, V domains shown)
VH: QVQLVESGGGVVQPGRSLRLSCAASGFTFSSYGMHWVRQAPGKGLEWVAVIWYDGDNKYYADSVQGRFTISRDNSKNTLYLQMNSLRPEDTAVYYCARERSSSWYFDYWGQGTLVTVSS
VL: B2 VL with G31S, Y34L, F48L, N55K, V60I, S91C, T94A, S95G, I98T, L99W
B5: 9.2.1 (antibody, human IgG4, V domains shown)
VH: B2 VH with K101T, N103Y, R114G
VL: B2 VL with F48L
B6: 5.36.1 (antibody, human IgG4, V domains shown)
VH: QVQLQQSGPGLVKPSQTLSLTCAISGDSVSSNSAAWNWIRQSPSRGLEWLGRTYYRSKWYNDYAVSVKSRITINPDTSKNQFSLQLNSVTPEDTAVYYCAREEQQLVRYYYYYGMDVWGQGTTVTVS
VL: DIVMTQTPLSLSVTPGQPASISCKSSQSLLHSDGRTYLYWYLQRPGQPPQLLIYEASYRFSGVPDRFSGSGSGTDFTLKISRVEAEDVGIYYCMQSIQLPRTFGQGTRLEIK
B7: 6.26.1 (antibody, human IgG4, V domains shown)
VH: QLQLQESGPGLVKPSETLSLTCTVSGGSISRSSYYWGWIRQPPGKGLEWMGNIYYSGSTHYNPSLKSRVTISVDTSKNQFSLKLSSVTAADTAVFYCAKGREYISSSGYGMDVWGQGTTVTVS
VL: SYELTQPPSVSVSPGQTASITCSGDKLGNKYVCWYQQKPGQSPVLVIFQDSRRPSGIPERFSGSNSGNTATLTISGTQAMDEADYYCQAWDTSTVIFGGGTKLTVL
B8: 8.18.1 (antibody, human IgG4, V domains shown)
VH: QVQLQESGPGLVKPSETLSLTCTVSGGSVSSGGYYWSWIRQPPGKGLEWIGYFYYSGSPNYNPSLKRRIAISVDTSKNQFSLRLSSVTAADTAVYYCARDPMHYYGMDVWGQGTTVTVSS
VL: SSELTQPPSVSVFPGQTANITCSGDKLGDKFACWYQQKPGQSPVLVIYRDNKRPSGIPERFSGSNSGNTATLTISGTQAMDEADYYCQAWDSSTYVVFGGGTKLTVL
B9: 8.50.1 (antibody, human IgG4, V domains shown)
VH: QVQLQESGPGLVKPSETLSLTCTVSGGSISSDYWSWIRQPAGKGLEWIGRFYNSGRTNYRPSLKSRITMSVDTSKNQFSLKLSSVTAADTAVYYCARDMYSGRGNWYFDLWGRGTLVTVS
VL: SYELTQPPSVSVSPGQTARITCSGDALPKKYAYWYQQKSGQAPVLVIYEDSKRPSGIPERFSGSSSGTMATLTISGAQVEDEADYYCYSTDSSDNHRVFGGGTKLTVL
B10: 9.31.1 (antibody, human IgG4, V domains shown)
VH: QVQLVESGGGLVKPGGSLRLSCAASGFTFSDYYMSWIRQAPGKGLEWVSYIRSSGSTIYYADSVKGRFTISRDNAKNSLYLQMNSLRAEDTAVYYCARTPYSGRYHWYFDLWGRGTLVTVS
VL: B9 VL with K29I, Q37H, D94G
B11: 9.11.1 (antibody, human IgG4, V domains shown)
VH: B4 VH with S31V, D56N, A61V, Q65K, M83L, P88A
VL: QSALTQPASVSGSSGQSITISCTGTSSDVGSYNLVSWYQQHPGKAPKLMIYEVSKRPSGVSNRFSGSKSGNTASLTISGLQAEDEADYYCCSYAGNSNWVFGGGTKLTVL

For this experiment, the target named is Cynomolgus monkey IL-1β (cynomolgus monkey). The experiment in a line: Biacore low-res, mAb captured, cyno IL-1β 117 nM, 25C. On the technique in general: Surface plasmon resonance follows binding to a sensor surface in real time, without labels.
Cynomolgus monkey IL-1β (cynomolgus monkey), sequence (P48090 117-269 limits assumed): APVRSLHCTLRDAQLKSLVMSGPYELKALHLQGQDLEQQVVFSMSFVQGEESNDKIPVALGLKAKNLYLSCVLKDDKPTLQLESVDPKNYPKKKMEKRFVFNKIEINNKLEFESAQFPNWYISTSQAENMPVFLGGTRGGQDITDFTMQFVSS
Regarding B1, the dissociation constant (Kd) was found to be 6.3 nM, the off-rate constant (koff) stood at 0.005 s⁻¹ and the on-rate (kon) was 800000 M⁻¹ s⁻¹.
Regarding B2, the Kd was found to be 0.5 nM, the koff amounted to 0.00012 s⁻¹ and the on-rate constant (kon) was found to be 260000 M⁻¹ s⁻¹.
For the molecule B3, the Kd came out at 1.3 nM, the koff was 0.0002 s⁻¹ and the kon turned out to be 150000 M⁻¹ s⁻¹.
B4 came in with a Kd of 4.6 nM, a koff of 0.0011 s⁻¹ and a kon of 240000 M⁻¹ s⁻¹.
B5 registered a dissociation constant (Kd) of 4.5 nM, a koff of 0.0014 s⁻¹ and a kon of 310000 M⁻¹ s⁻¹.
In turn, B6 returned a Kd of 3.4 nM, a koff of 0.00072 s⁻¹ and a kon of 210000 M⁻¹ s⁻¹.
B7 showed an equilibrium dissociation constant (Kd) of 1.1 nM, an off-rate (koff) of 0.00031 s⁻¹ and an association rate constant (kon) of 270000 M⁻¹ s⁻¹.
As for B8, the Kd was found to be 0.8 nM, the koff stood at 9.2e-05 s⁻¹ and the kon came out at 110000 M⁻¹ s⁻¹.
With B9, the Kd stood at 2.5 nM, the koff came to 0.0012 s⁻¹ and the kon was determined as 470000 M⁻¹ s⁻¹.
On to B10, for which the dissociation constant (Kd) stood at 5 nM, the koff came out at 0.0015 s⁻¹ and the on-rate constant (kon) was 300000 M⁻¹ s⁻¹.
For B11 the same measures were 0.8 nM, 0.00027 s⁻¹ and 330000 M⁻¹ s⁻¹.
